Results reported in patent US20070066551, “Aptamer medicinal chemistry” (published 2007).

How the values were obtained:
Conditions in all cases: label: 5'-32P
IL-23 (full length) [1] = target: T1, IL-23 (full length) (Homo sapiens, UniProt Q9NPF7;P29460 Q9NPF7:20-189,P29460:23-328); experiment: filter; PBS without Ca/Mg, 0.1 mg/mL BSA, RT 30 min; 13 nM in DPBS with Ca/Mg (Table 5)
Description: (§1) A three-layer filtration medium was used, consisting (from bottom to top) of Protran nitrocellulose (Schleicher & Schuell), Hybond-P nylon (Amersham Biosciences) and GB002 gel blot paper (Schleicher & Schuell). RNA that is bound to protein is captured on the nitrocellulose filter, whereas the non-protein bound RNA is captured on the nylon filter. The gel blot paper was included simply as a supporting medium for the other filters. Following filtration, the filter layers were separated, dried and exposed on a phosphor screen (Amersham Biosciences, Piscataway, N.J.) and quantified using a Storm 860 Phosphorimager® blot imaging system (Amersham Biosciences).
A set of ARC979 (SEQ ID NO 1) derivative aptamers introducing single phosphorothioate substitutions (Glen Research, Sterling, Va.) were chemically synthesized by standard synthesis techniques. In each set of derivatives, single phosphorothioate substitutions were systematically introduced at each internucleotide linkage position resulting in each derivative within one set having an aptamer with a phosphorothioate substitution at a different internucleotide position. These derivatives were gel purified and assayed for IL-23 binding, using the dot blot assay described above under the following binding reaction conditions: 1×PBS (without Ca⁺⁺ or Mg⁺⁺) plus 0.1 mg/mL BSA, for a 30 minute incubation at room temperature. […]

IL-23 (full length) [2] = target: T1, IL-23 (full length); experiment: filter; DPBS with Ca/Mg, BSA, RT; parent 3.7 nM
Description: as §1
The dot blot binding assay previously described was used to characterize the relative potency of the majority of the aptamers synthesized as compared to the parent molecule, ARC1386. […] KD values were calculated by fitting the equation y=(max/(1+K/protein))+yint using KaleidaGraph (KaleidaGraph v. 3.51, Synergy Software).

[3] = target: T2, von Willebrand Factor (vWF) (UniProt P04275 P04275:764-2813); experiment: filter; DPBS with Ca/Mg, 0.1 mg/mL BSA, 24 C
[4] = target: T2, von Willebrand Factor (vWF); experiment: filter; DPBS with Ca/Mg, 0.1 mg/mL BSA, 24 C; remark: listed apart in the source
Description: as §1
A set of ARC1172 (SEQ ID NO 3) derivative aptamers introducing single phosphorothioate substitutions (Glen Research, Sterling, Va.) were chemically synthesized using standard synthesis techniques. In each set of derivatives, single phosphorothioate substitutions were systematically introduced at each internucleotide linkage position resulting in each derivative set having an aptamer with a phosphorothioate substitution at a different internucleotide position. […] KD values for the ARC1172 derivative aptamers were calculated by fitting the equation y=(max/(1+K/protein))+yint using KaleidaGraph (KaleidaGraph v. 3.51, Synergy Software).

T1 sequence (Q9NPF7 20-189, chain 1 of 2): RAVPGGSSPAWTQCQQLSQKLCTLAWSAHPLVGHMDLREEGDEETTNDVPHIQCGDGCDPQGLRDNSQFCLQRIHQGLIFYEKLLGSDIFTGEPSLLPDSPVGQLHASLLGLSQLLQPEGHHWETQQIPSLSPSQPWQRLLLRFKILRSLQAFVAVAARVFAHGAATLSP
T1 sequence (P29460 23-328, chain 2 of 2): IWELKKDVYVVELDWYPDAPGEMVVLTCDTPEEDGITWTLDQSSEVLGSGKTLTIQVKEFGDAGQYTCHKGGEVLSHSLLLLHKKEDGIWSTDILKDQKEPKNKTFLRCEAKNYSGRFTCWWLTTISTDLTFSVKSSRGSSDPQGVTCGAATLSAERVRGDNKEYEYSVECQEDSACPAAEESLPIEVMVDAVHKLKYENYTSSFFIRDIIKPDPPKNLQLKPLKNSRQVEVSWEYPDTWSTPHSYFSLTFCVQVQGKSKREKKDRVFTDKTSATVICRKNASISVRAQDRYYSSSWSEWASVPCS

ACAGGCAAGUAAUUGGGGAGUGCGGGCGGGGUGU (mixed, 2'-deoxy purines, 2'-OMe pyrimidines (dRmY)) [ARC979]
Kd (IL-23 (full length) [1]): 90 nM

ACAGGCAAGTAAUUGGGGAGUGCGGGCGGGGUGU (mixed, dRmY; 2'-deoxy dihydrouridine at 10; 3'-idT (last t of SEQ)) [ARC1709]
Kd (IL-23 (full length) [2]): 2.8 nM

ACAGGCAAGUAAUUGGGGAGUGCGGGCGGGGTGU (mixed, dRmY; 2'-deoxy dihydrouridine at 32; 3'-idT (last t of SEQ)) [ARC1713]
Kd (IL-23 (full length) [2]): 2.2 nM

GCGUGCAGUGCCUUCGGCCGTGCGGTGCCUCCGUCACGC (mixed, multiple 2'-OMe substitutions as in Table 3; 3'-idT (last t of SEQ)) [ARC1361]
Kd [3]: 7.9 nM

B1: ARC1368 (mixed)
mixed: GCGUGCAGUGCCUUCGGCCGTGCGGTGCCUCCGUCACGC
modifications: as ARC1361 plus PS between 20 and 21 (as printed, mG-s-T); 3'-idT (last t of SEQ)
Kd [3]: 1.8 nM

GGCGTGCAGTGCCTTCGGCCGTGCGGTGCCTCCGTCACGCC (ssDNA, 3'-idT (last t of SEQ)) [ARC1172 w/3T]
Kd [4]: 2 nM

GGCGTGCAGTGCCTTCGGCCGTGCGGTGCCTCCGTCACGCC (ssDNA, 3'-idT as printed in Table 3) [ARC1172]
Kd [3]: 2 nM
